Laboratory results reported in US20090305951A1 (published 2009).

Target: FGF-receptor on dissociated neurons from embryonic rat hippocampus (rat)
Experiment: cell-based or functional assay

Row | Binder | neurite outgrowth from hippocampal neurons, 50 µM peptide, relative to the entire FG loop peptide [%]
1 | AENQQGK [truncated version of the FG loop peptide, heptamer Ala 77-Lys 83] | ~50
2 | VAENQQGKS [truncated version of the FG loop peptide, nonamer Val 76-Ser 84] | ~50
